Laboratory results reported in patent publication US20250152727A1.

Target: recombinant human TfR1 (human) (UniProt P02786)
Experiment: SPR (Carterra LSA), IgG captured on chip, TfR1 as analyte, 25 C

recombinant human TfR1 (human), sequence (P02786 89-760 limits assumed): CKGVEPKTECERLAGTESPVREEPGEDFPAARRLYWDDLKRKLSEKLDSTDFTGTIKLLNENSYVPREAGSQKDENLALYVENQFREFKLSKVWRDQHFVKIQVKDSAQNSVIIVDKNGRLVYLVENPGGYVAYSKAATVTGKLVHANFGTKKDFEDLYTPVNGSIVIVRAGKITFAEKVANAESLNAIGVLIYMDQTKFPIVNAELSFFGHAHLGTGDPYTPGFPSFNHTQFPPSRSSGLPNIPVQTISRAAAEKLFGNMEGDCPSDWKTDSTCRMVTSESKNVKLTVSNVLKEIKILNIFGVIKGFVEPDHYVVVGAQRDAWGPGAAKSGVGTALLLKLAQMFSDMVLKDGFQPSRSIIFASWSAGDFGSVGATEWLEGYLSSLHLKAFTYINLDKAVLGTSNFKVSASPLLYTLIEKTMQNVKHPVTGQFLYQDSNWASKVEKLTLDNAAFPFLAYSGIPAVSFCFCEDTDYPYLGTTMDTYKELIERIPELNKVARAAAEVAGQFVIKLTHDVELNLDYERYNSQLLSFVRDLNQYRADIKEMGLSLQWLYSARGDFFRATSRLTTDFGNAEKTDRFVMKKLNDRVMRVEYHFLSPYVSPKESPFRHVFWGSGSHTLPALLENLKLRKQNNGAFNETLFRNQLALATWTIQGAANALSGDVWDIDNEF

Kd: 0.536 nM
Substance: OKT9 mIgG (antibody)
